Experimental data reported in patent US20240262905A1 (PANDION OPERATIONS, published 2024).

T1: human DSG-3 (human, UniProt P32926 50-615, limits assumed)
T1 construct: Soluble analyte (Octet) and plate coat (ELISA); also called hDSG-3
T1 sequence (looked up): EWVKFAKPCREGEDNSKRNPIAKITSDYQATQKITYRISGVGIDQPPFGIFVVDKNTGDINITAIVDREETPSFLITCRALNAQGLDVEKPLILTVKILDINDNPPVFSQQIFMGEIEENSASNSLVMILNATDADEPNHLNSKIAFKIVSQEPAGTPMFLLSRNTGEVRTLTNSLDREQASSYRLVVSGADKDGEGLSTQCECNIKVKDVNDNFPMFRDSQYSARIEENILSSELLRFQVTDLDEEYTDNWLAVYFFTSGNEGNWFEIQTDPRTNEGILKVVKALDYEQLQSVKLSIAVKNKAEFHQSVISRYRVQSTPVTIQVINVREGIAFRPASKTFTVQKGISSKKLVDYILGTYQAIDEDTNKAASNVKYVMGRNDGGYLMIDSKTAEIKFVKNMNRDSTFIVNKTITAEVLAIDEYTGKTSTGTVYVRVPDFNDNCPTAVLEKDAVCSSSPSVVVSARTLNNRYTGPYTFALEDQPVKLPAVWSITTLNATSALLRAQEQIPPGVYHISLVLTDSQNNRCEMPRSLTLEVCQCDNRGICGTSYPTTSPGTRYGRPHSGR

B1: PD1DSGAB4 (bispecific antibody, human IgG1, kappa)
heavy: QVQLVQSGAEVKKPGASVKVSCKASGYSFTTYYMHWVRQAPGQGLEWMGIINPSGGSTSYAQKFQGRVTMTRDTSTSTVYMELSSLRSEDTAVYYCASGWVYWGQGTLVTVSSASTKGPSVFPLAPSSKSTSGGTAALGCLVKDYFPEPVTVSWNSGALTSGVHTFPAVLQSSGLYSLSSVVTVPSSSLGTQTYICNVNHKPSNTKVDKKVEPKSCDKTHTCPPCPAPEAAGAPSVFLFPPKPKDTLMISRTPEVTCVVVDVSHEDPEVKFNWYVDGVEVHNAKTKPREEQYNSTYRVVSVLTVLHQDWLNGKEYKCKVSNKALPAPIEKTISKAKGQPREPQVYTLPPSREEMTKNQVSLTCLVKGFYPSDIAVEWESNGQPENNYKTTPPVLDSDGSFFLYSKLTVDKSRWQQGNVFSCSVMHEALHNHYTQKSLSLSPGGGGGSGGGGSGGGGSELVLTQPPSVPVAPGQTANISCGGNNIGRQTVHWYQQKPGQAPVLVVFDDSDRPAGIPERFSGSNSGNTATLTISRVEAGDEADYYCQVWDSSSDHVVFGGGTQLTVLGGGGSGGGGSGGGGSGGGGSQVQLVQSGGGVVQSGRSLRLSCAASGFTFSDYAMHWVRQAPGKGLEWVAVISHGGTKKYTGDSVKGRFIISRDNSKNTVFLQMNSLRVEDTAVYYCARDRVEGYVWGGTFDHWGQGTPVTVSS
light: not shown
notes: Anti-PD-1 agonist human IgG1 with an SD4 anti-desmoglein scFv at the C-terminus of each heavy chain; copies: 2 + 2
B2: IL2DSGAB3 (other)
heavy: EVQLVESGGGLVQPGRSLRLSCAASGFTFDDYAMHWVRQAPGKGLEWVSGISWNSGSIDYADSVKGRFTISRDNAKNSLYLQMNSLRVEDTALYYCAKDGSRVFGVGGGFDFWGQGTMVTVSSASTKGPSVFPLAPSSKSTSGGTAALGCLVKDYFPEPVTVSWNSGALTSGVHTFPAVLQSSGLYSLSSVVTVPSSSLGTQTYICNVNHKPSNTKVDKKVEPKSCDKTHTCPPCPAPEAAGAPSVFLFPPKPKDTLMISRTPEVTCVVVDVSHEDPEVKFNWYVDGVEVHNAKTKPREEQYNSTYRVVSVLTVLHQDWLNGKEYKCKVSNKALPAPIEKTISKAKGQPREPQVYTLPPSREEMTKNQVSLTCLVKGFYPSDIAVEWESNGQPENNYKTTPPVLDSDGSFFLYSKLTVDKSRWQQGNVFSCSVMHEALHNHYTQKSLSLSPGGGGGSAPTSSSTKKTQLQLEHLLLDLQMILNGINNYKNPKLTRMLTFKFYMPKKATELKHLQCLEEELKPLEEALNLAPSKNFHLRPRDLISDINVIVLELKGSETTFMCEYADETATIVEFINRWITFSQSIISTLT
light: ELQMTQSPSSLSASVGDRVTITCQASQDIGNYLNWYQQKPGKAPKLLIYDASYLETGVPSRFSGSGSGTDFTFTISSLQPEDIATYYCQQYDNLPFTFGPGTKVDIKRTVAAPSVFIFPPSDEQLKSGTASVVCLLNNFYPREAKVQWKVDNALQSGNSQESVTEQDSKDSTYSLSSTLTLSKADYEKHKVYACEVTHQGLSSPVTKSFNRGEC
notes: SD3 anti-desmoglein human IgG1 with the IL-2 mutein fused to the C-terminus of the heavy chain; copies: 2 + 2
B3: IL2DSGAB4 (other)
heavy: QVQLVQSGGGVVQSGRSLRLSCAASGFTFSDYAMHWVRQAPGKGLEWVAVISHGGTKKYTGDSVKGRFIISRDNSKNTVFLQMNSLRVEDTAVYYCARDRVEGYVWGGTFDHWGQGTPVTVSSASTKGPSVFPLAPSSKSTSGGTAALGCLVKDYFPEPVTVSWNSGALTSGVHTFPAVLQSSGLYSLSSVVTVPSSSLGTQTYICNVNHKPSNTKVDKKVEPKSCDKTHTCPPCPAPEAAGAPSVFLFPPKPKDTLMISRTPEVTCVVVDVSHEDPEVKFNWYVDGVEVHNAKTKPREEQYNSTYRVVSVLTVLHQDWLNGKEYKCKVSNKALPAPIEKTISKAKGQPREPQVYTLPPSREEMTKNQVSLTCLVKGFYPSDIAVEWESNGQPENNYKTTPPVLDSDGSFFLYSKLTVDKSRWQQGNVFSCSVMHEALHNHYTQKSLSLSPGGGGGSAPTSSSTKKTQLQLEHLLLDLQMILNGINNYKNPKLTRMLTFKFYMPKKATELKHLQCLEEELKPLEEALNLAPSKNFHLRPRDLISDINVIVLELKGSETTFMCEYADETATIVEFINRWITFSQSIISTLT
light: ELVLTQPPSVPVAPGQTANISCGGNNIGRQTVHWYQQKPGQAPVLVVFDDSDRPAGIPERFSGSNSGNTATLTISRVEAGDEADYYCQVWDSSSDHVVFGGGTQLTVLGQPKAAPSVTLFPPSSEELQANKATLVCLISDFYPGAVTVAWKADSSPVKAGVETTTPSKQSNNKYAASSYLSLTPEQWKSHRSYSCQVTHEGSTVEKTVAPTECS
notes: SD4 anti-desmoglein human IgG1 with the IL-2 mutein fused to the C-terminus of the heavy chain; copies: 2 + 2

Tests used:
human PD-1 = molecular target: T2, human PD-1 (human, UniProt Q15116 25-167); experiment: BLI (Octet), test article captured on anti-human Fc biosensors, human PD-1 as analyte, 1:1 global fit
T2 construct: Soluble analyte in the Octet assay
Protocol: Affinity of the PD-1 effector arm to human PD-1 was measured using anti-human Fc biosensors. Said anti-human Fc biosensors were equilibrated in assay buffer (PBS, pH 7.4 with 1% BSA, and 0.05% Tween-20) for 30 minutes before the experiment was set-up. […] A two-fold, seven-point dilution of human PD-1 (starting at 500 nM as the highest concentration) was made. Test articles were captured using anti-human Fc biosensors for 180 s. Biosensors loaded with test articles were equilibrated in assay buffer for 120 s; association was performed for 180 seconds and dissociation was performed for 300 s. Kinetic parameters (kon and kdis) and dissociation constant (KD) were calculated from a 1:1 global fit model using the data analysis software of the Octet96 RED software version 10.

human DSG-3 [1] = molecular target: T1, human DSG-3; experiment: bridging ELISA, plate coated with hDSG-3, test article at 1 nM, then his-tagged hCD25 1 ug/mL, anti-His-HRP detection
Protocol: (§1) An immunosorbent plate was coated with dsDNA at a concentration of 1 μg/mL hDSG-3 in PBS pH 7.4 and incubated overnight at 4° C. Wells were washed with PBS pH 7.4 containing 0.05% Tween-20 (wash buffer) three times, and then blocked with 6% milk in PBS pH 7.4 (block buffer) for two hours at room temperature. After three washes with wash buffer, 1 nM, 10 nM, and 100 nM of the test articles in assay buffer (PBS, pH 7.4 containing 1% BSA and 0.05% Tween-20) was added and incubated for 1 hr. After three washes with wash buffer 1 μg/mL of his-tagged hCD25 was added and incubated for 1 hr. Detected with anti anti-His-HRP conjugated antibody (1:10,000 dilution).

human DSG-3 [2] = molecular target: T1, human DSG-3; experiment: bridging ELISA, plate coated with hDSG-3, test article at 100 nM, then his-tagged hCD25 1 ug/mL, anti-His-HRP detection
Protocol: as §1

Insulin = molecular target: T3, Insulin; experiment: ELISA, plate coated with insulin 5 ug/mL, test article at 100 nM, anti-human Fc-HRP detection
T3 construct: Plate coat in the polyreactivity ELISA
Protocol: Non-specific DNA and Insulin binding (a measure of polyreactivity), which may be predictive of poor PK, was measured. An immunosorbent plate was coated with dsDNA at a concentration of 1 μg/mL or Insulin at 5 μg/mL in PBS pH 7.4 and incubated overnight at 4° C. Wells were washed with PBS pH 7.4 containing 0.05% Tween-20 (wash buffer) three times, and then blocked with 1% BSA in PBS pH 7.4 (block buffer) for two hours at room temperature. […] The diluted material was added to the DNA/insulin coated plate for 1 hour at room temperature. After three washes with wash buffer, a donkey anti-human FcY HRP conjugated polyclonal antibody, diluted to 1:5000 in assay buffer, was added to the plate for 1 hr at room temperature. After three washes with wash buffer and three washes with wash buffer (with no tween-20), the assay was developed with TMB, and stopped with 1N HCL. OD 450 nm was measured.

human DSG-3 [3] = molecular target: T1, human DSG-3; experiment: bridging ELISA, plate coated with hDSG-3, test article at 10 nM, then his-tagged hCD25 1 ug/mL, anti-His-HRP detection
Protocol: as §1

T2 sequence (Q15116 25-167 limits assumed): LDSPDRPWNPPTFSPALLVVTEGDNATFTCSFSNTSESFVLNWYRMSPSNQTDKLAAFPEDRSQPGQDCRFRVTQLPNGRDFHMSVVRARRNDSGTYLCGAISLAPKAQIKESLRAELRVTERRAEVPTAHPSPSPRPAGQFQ

Row | Binder | Kd (human PD-1) | absorbance (OD450 nm) (human DSG-3 [1]) | absorbance (OD450 nm) (human DSG-3 [2]) | Insulin polyreactivity score (Insulin) | absorbance (OD450 nm) (human DSG-3 [3])
1 | B1 | 243 nM | – | – | – | –
2 | B2 | – | 0.508 | 0.756 | 2.9 | 0.628
3 | B3 | – | 0.194 | 1.16 | 3.1 | 0.545
